Patent publication US20260201069A1, “ANTIBODIES THAT SPECIFICALLY BIND MODIFIED OLIGONUCLEOTIDES” (Hoffmann-La Roche Inc., priority 2024, published 2026)

Legend:
Format in all cases: binding
DNA1-Bi = assay: Hybridoma antibody specificity immunoassay; settings: hybridoma antibody subclones, Table 1-4
Source text: (§1) From two selected animals, spleen cells were fused to Ag8 cells to generate antibody-producing hybridomas using state-of-the-art hybridoma cell technology. After cell fusion, hybridomas were screened for specific reactivity with LNA-containing ASOs using DNA-containing ASOs for specificity evaluation.
(§2) In more detail, from two cell fusions, 3840 initial hybridoma clones resulting in 33 primary hybridoma clones were obtained. Thereof, 11 were selected for further characterization of binding characterization by biomolecular interaction analysis (kinetic and thermodynamic surface plasmon resonance). Five primary hybridoma clones were further processed by subcloning to generate monoclonal hybridoma cell culture clones.
as §1, with “From immunoreactive mice (2 animals selected),” for “From two selected animals,”, “antibody-producing fusion cells” for “antibody-producing hybridomas”
as §2, with “From two” for “In more detail, from two”, “binding properties” for “binding characterization”, “resonance). Finally, 5” for “resonance). Five”, “culture clones (Tables 1-3 and 1-4).” for “culture clones.”

LNA2-Bi = assay: Hybridoma antibody specificity immunoassay; settings: hybridoma antibody subclones, Table 1-4
Source text: as §1, §2
as §1, with “From immunoreactive mice (2 animals selected),” for “From two selected animals,”, “antibody-producing fusion cells” for “antibody-producing hybridomas”
as §2, with “From two” for “In more detail, from two”, “binding properties” for “binding characterization”, “resonance). Finally, 5” for “resonance). Five”, “culture clones (Tables 1-3 and 1-4).” for “culture clones.”

LNA4b-Bi = assay: Hybridoma antibody specificity immunoassay; settings: hybridoma antibody subclones, Table 1-4
Source text: as §1, §2
as §1, with “From immunoreactive mice (2 animals selected),” for “From two selected animals,”, “antibody-producing fusion cells” for “antibody-producing hybridomas”
as §2, with “From two” for “In more detail, from two”, “binding properties” for “binding characterization”, “resonance). Finally, 5” for “resonance). Five”, “culture clones (Tables 1-3 and 1-4).” for “culture clones.”

LNA1-Bi = assay: Hybridoma antibody specificity immunoassay; settings: hybridoma antibody subclones, Table 1-4
Source text: as §1, §2
as §1, with “From immunoreactive mice (2 animals selected),” for “From two selected animals,”, “antibody-producing fusion cells” for “antibody-producing hybridomas”
as §2, with “From two” for “In more detail, from two”, “binding properties” for “binding characterization”, “resonance). Finally, 5” for “resonance). Five”, “culture clones (Tables 1-3 and 1-4).” for “culture clones.”

DNA4b-Bi = assay: Hybridoma antibody specificity immunoassay; settings: hybridoma antibody subclones, Table 1-4
Source text: as §1, §2
as §1, with “From immunoreactive mice (2 animals selected),” for “From two selected animals,”, “antibody-producing fusion cells” for “antibody-producing hybridomas”
as §2, with “From two” for “In more detail, from two”, “binding properties” for “binding characterization”, “resonance). Finally, 5” for “resonance). Five”, “culture clones (Tables 1-3 and 1-4).” for “culture clones.”

DNA2-Bi = assay: Hybridoma antibody specificity immunoassay; settings: hybridoma antibody subclones, Table 1-4
Source text: as §1, §2
as §1, with “From immunoreactive mice (2 animals selected),” for “From two selected animals,”, “antibody-producing fusion cells” for “antibody-producing hybridomas”
as §2, with “From two” for “In more detail, from two”, “binding properties” for “binding characterization”, “resonance). Finally, 5” for “resonance). Five”, “culture clones (Tables 1-3 and 1-4).” for “culture clones.”

[1] = tested on: LNA sequence (nucleotides/sequence of bases); assay: Epitope mapping solid phase immunoassay (ELISA)
Source text: The epitope was mapped using immunoassays with capture molecules containing the following binding epitopes as well as combinations thereof: • LNA (2′-0,4-C-methylene), • phosphorothioate in the NA backbone, • nucleotides/sequence of bases, • DNA, • GalNAc-C6-modification.
The results of the epitope characterization of the antibodies according to the current invention by solid phase immunoassay (ELISA) using different biotinylated LNA, PS-backbone or DNA-containing NA-oligonucleotides as outlined above are shown in FIGS. 1 to 5.
The selected monoclonal LNA-specific Abs were further characterized for binding characteristics and epitope mapped by immunoassay using capture molecules containing the following binding epitopes and combinations thereof • LNA (2′-O.4-C-methylene) • phosphorothioate in the NA backbone • nucleotides/sequence of bases • DNA • GalNAc-C6-modification
The results of the antibody characterization by solid phase immunoassay (ELISA) using different biotinylated LNA, PS-backbone or DNA-containing NA-oligonucleotides are shown in FIGS. 1 to 5.

Row | Molecule | Signal DNA1-Bi (DNA1-Bi) | Signal LNA2-Bi (LNA2-Bi) | Signal LNA4b-Bi (LNA4b-Bi) | Signal LNA1-Bi (LNA1-Bi) | Signal DNA4b-Bi (DNA4b-Bi) | Signal DNA2-Bi (DNA2-Bi) | LNA sequence specificity [1]
1 | 1.2.8 (antibody, listed as Mus musculus, V domains shown) VH: QIQLRESGPGLVAPSQSLSITCTVSGFSLTNYGVHWVRQPPGKGLEWLGVIWAGGSTIYNSALMSRLSISRDNSKSQVFLEMNSLQTYDTAMYYCARDRPFDGFFFSYWGQGTALTVSS VL: DVLMTQTPLSLPVSLGDQASISCRSSQAIVHRSGNTFLEWYLQKPGQSPKLLIYKVSNRFSGVPDRFSGSGSGTDFTLKINRVEAEDLGVYYCFQGSHVPYTFGSGTKLEIK | 0.041 OD | 2.012 OD | 1.916 OD | 2.330 OD | 0.034 OD | 0.037 OD | –
2 | 1.4.10 (antibody, listed as Mus musculus, V domains shown) VH: QIQLRESGPGLVAPSQSLSITCTVSGFSLVNYGIHWVRQPPGKGLEWLGVIWAGGSTIYNSALMSRLSISRDNSKNQVFLEMNSLQTYDTAMYYCARDRPFDGFFFSYWGQGTALTVSS VL: DVLMTQTPLSLPVSLGDQASISCRSSQAIVHRSGNTFLEWYLQKPGQSPKLLIYKVSNRFSGVPDRFSGSGSGTDFTLKINRVEAEDLGVYYCFQGSHVPYTFGSGTKLEIK | 0.084 OD | 3.154 OD | 2.977 OD | 3.398 OD | 0.038 OD | 0.049 OD | –
3 | 1.7.15 (antibody, V domains shown) VH: QVQLKQSGPSFVQPSQSLSITCTVSGFSLTTYGVHWVRQSPGKGLEWLGVIWRSGGTDYNAAFMSRLSITKDNSKSQVFFKMNSLQTDDTAIYYCTNLYYWGQGTTLTVSS VL: DIVMTQATFSNPVTLGTSVSISCRSSKSLLRSNGITYLYWYLQKPGQSPQLLIYQMSNLASGVPDRFSSSGSGTDFTLRISRVEAEDVGVYYCGQNLELPYTFGSGTKVEIK | 0.060 OD | 2.815 OD | >4.000 OD | 2.195 OD | 0.035 OD | 0.150 OD | LNA sequence specific binders
4 | 1.9.21 (antibody, V domains shown) VH: QVQLQQSGAELVRPGTSVKVSCKASGYAFTNYLIEWIKQRPGQGLEWIGVINPGSGGTNYNEKFRVKATLTADKSSSTAYMQLSSLTSDDSAVYFCARGGGYYWGQGTLVTVSA VL: DIVMTQAAPSVPVTPGESVSISCRSSKSLLHSNGNTYLFWFLQRPGQSPQVLIYRMSNLASGVPDRFSGSGSGTAFTLRISRVEAEDVGVYYCMQHLEYPYTFGSGTRLEIK | 0.064 OD | >4.000 OD | 3.556 OD | >4.000 OD | 0.110 OD | 0.039 OD | LNA sequence specific binders
